Where no end group is shown, it is not given here.
Target: T1, Rb-E2F binding (RbNP construct, E2FTMR peptide) (Homo sapiens, UniProt P06400, DEL245-267/DEL582-642)
T1 construct: lacks the internal loops in each domain (residues 53-787, Δ245-267, Δ582-642)
Assay: Fluorescence polarization titration of RbNP into E2FTMR
Conditions: RbNP titrated into 10 nM E2FTMR
Source text: The inventors have designed and successfully implemented a high-throughput fluorescence polarization assay to screen molecules for their modulation of Rb-E2F binding affinity. In the current exemplary format, a peptide corresponding to the E2F transactivation domain (E2F2 amino acids 409-428) was synthesized with a tetramethylrhodamine dye (TMR) at its N-terminus (E2FTMR). This peptide can then be mixed with various Rb constructs, which bind the peptide and change the polarization of the TMR fluorescence. For initial experiments, the investigators have used an Rb construct RbNP, which contains the Rb N-terminal domain and pocket domain but lacks the internal loops in each domain (residues 53-787, Δ245-267, Δ582-642).
The affinity of E2FTMR for unphosphorylated Rb is approximately 7-fold tighter than its affinity for phosphorylated RbNP. In the presence of 10 μM synthetic peptide that contains the ‘L×C×E’ sequence from the E7 oncoprotein, phosphorylated Rb binds E2F with 2-fold higher affinity. This peptide, which has a similar effect in calorimetry measurements of affinity, binds near the RbN-pocket interface, and the investigators predict it inhibits interdomain docking.

T1 sequence (P06400 with tags, fused parts or gaps DEL245-267/DEL582-642, one chain of several): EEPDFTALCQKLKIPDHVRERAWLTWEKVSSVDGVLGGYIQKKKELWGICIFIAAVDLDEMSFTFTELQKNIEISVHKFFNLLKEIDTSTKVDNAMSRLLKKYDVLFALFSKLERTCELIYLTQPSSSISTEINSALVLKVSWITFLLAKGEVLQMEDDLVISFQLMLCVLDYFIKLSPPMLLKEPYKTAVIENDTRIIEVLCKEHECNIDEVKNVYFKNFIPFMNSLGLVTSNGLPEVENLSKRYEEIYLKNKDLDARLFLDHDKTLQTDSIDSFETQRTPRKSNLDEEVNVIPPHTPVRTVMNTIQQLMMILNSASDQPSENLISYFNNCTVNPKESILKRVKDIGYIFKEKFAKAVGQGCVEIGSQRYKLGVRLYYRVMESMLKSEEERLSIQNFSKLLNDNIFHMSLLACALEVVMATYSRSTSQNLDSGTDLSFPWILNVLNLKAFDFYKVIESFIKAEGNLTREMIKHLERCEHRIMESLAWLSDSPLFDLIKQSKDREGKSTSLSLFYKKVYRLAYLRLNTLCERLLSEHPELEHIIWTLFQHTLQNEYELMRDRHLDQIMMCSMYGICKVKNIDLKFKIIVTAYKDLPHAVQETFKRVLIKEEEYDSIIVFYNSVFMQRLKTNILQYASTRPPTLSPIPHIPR

For “E2FTMR: peptide corresponding to the E2F transactivation domain (E2F2 amino acids 409-428) with a tetramethylrhodamine dye at its N-terminus (tetramethylrhodamine-QDDYLWGLEAGEGISDLFDS; UniProt Q14209 409-428, looked up, fragment)”, the “Affinity of E2FTMR for unphosphorylated Rb relative to phosphorylated RbNP” value was “approximately 7 fold”.
